Data as given in PMC3367564.

Columns and labels:
[1] = target: MBP-sAnk1(29-155) (UniProt P16157); test: SPR
[2] = target: MBP-sAnk1(29-155) D111R (UniProt P16157); test: SPR
[3] = target: obscurin (UniProt Q5VST9); conditions: cited from earlier work

| Substance | peak binding relative to wild type [1] | ratio of binding to sAnk1-D111R over binding to wild type sAnk1 [2] | other results |
| --- | --- | --- | --- |
| GST-Obsc(6316-6436) E6327A (domain or fragment) | 40 % of control |  |  |
| GST-Obsc(6316-6436) E6329A (domain or fragment) | 40 % of control |  |  |
| GST-Obsc(6316-6436) K6337E (domain or fragment) |  | 1.7 |  |
| GST-Obsc(6316-6436) K6338A (domain or fragment) |  | 1.7 |  |
| GST-Obsc(6316-6436) K6338E (domain or fragment) |  | 3.7 |  |
| GST-Obsc(6316-6436) with the two N-terminal glutamates changed to alanines (E6327A, E6329A) (domain or fragment) | 10 % of control |  |  |
| GST-Obsc(6316-6436), wild type (domain or fragment) |  | 1.7 |  |
| small ankyrin 1 (from UniProt P16157) |  |  | Kd [3]: 130 nM |
